Target: VEGF165 (UniProt P15692)
Experiment: ELISA, plate coated with VEGF, anti-human Fc-HRP detection

Chain of VEGF165 (P15692 other isoform, or with tags, fused parts or gaps limits assumed): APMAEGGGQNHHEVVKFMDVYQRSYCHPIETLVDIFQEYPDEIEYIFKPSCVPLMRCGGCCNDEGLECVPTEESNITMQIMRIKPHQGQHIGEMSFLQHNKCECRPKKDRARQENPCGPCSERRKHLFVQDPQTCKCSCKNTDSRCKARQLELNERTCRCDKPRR

Kd: 0.5 pM
Substance: VEGF-trap (aflibercept) (Fc fusion)

— patent US20190375821A1
